Measurements: the supplement of paper PMC7877785
± gives the uncertainty stated by the source.

Assay: self-splicing fitness, log relative to wild type (ln ratio); higher = more splicing; Tetrahymena group I intron in knt gene, E. coli kanamycin selection, DiMSum; sequences stand for … in CUCUCU…GGAGGGAAAAGUUAUCAGGCAUGCACCUGGUAGCUAGUCUUUAAACCAAUAGAUUGCAUCGGUUUAAAAGGCAAGACCGUCAAAUUGCGGGAAAGGGGUCAACAGCCGUUCAGUACCAAGUCUCAGGGGAAACUUUGAGAUGGCCUUGCAAAGGGUAUGGUAAUAAGCUGACGGACAUGGUCCUAACCACGCAGCCAAGUCCUAAGUCAACAGAUCUUCUGUUGAUAUGGAUGCAGUUCACAGACUAAAUGUCGGUCGGGGAAGAUGUAUUCUUCUCAUAAGAUAUAGUCGGACCUCUCCUUAAUGGGAGCUAGCGGAUGAAGUGAUGCAACACUGGAGCCGCUGGGAACUAAUUUGUAUGCGAAAGUAUAUUGAUUAGUUUUGGAGUACUCGUGGUCG
Outline: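 DiMSum derived fitness as the error-weighted combination of fold changes across replicates, kanamycin versus no kanamycin, normalised to wild type. E. coli BL21(DE3) held the library, which randomised all eight P1ex-region intron nucleotides within the knt kanamycin-resistance gene on pET-22b(+). Six replicate transformations grew overnight at 37°C or 30°C on LB agar with or without 25 μg/mL kanamycin, also containing 100 μg/mL carbenicillin, 50 μM IPTG and 0.2% rhamnose, and pooled colonies were amplicon-sequenced on an Illumina HiSeq 2500.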

Sequence: AUGGAGCAAUAUUACGAAAG
- self-splicing fitness (ln) (30 °C): -2.94 ± 0.24
- self-splicing fitness (ln) (37 °C): -2.11 ± 0.32

Sequence: AUGGAGCAAUAUUACGAACU
- self-splicing fitness (ln) (30 °C): -1.95 ± 0.28
- self-splicing fitness (ln) (37 °C): -1.45 ± 0.24

Sequence: AUGGAGCAAUAUUACGAGCU
- self-splicing fitness (ln) (30 °C): -3.12 ± 0.27
- self-splicing fitness (ln) (37 °C): -2.17 ± 0.37

Sequence: AUGGAGCAAUAUUACGAGGC
- self-splicing fitness (ln) (30 °C): -3.37 ± 0.34
- self-splicing fitness (ln) (37 °C): -2.44 ± 0.23

Sequence: AUGGAGCAAUAUUACGAUAC
- self-splicing fitness (ln) (37 °C): -1.71 ± 0.48

Sequence: AUGGAGCAAUAUUACGAUUG
- self-splicing fitness (ln) (30 °C): -2.3 ± 0.25
- self-splicing fitness (ln) (37 °C): -3.12 ± 0.33

Sequence: AUGGAGCAAUAUUACGAUUU
- self-splicing fitness (ln) (30 °C): -1.08 ± 0.12
- self-splicing fitness (ln) (37 °C): -1.6 ± 0.16

Sequence: AUGGAGCAAUAUUACGCACU
- self-splicing fitness (ln) (30 °C): -0.628 ± 0.14
- self-splicing fitness (ln) (37 °C): -0.159 ± 0.18

Sequence: AUGGAGCAAUAUUACGCAUA
- self-splicing fitness (ln) (30 °C): -1.53 ± 0.42
- self-splicing fitness (ln) (37 °C): -1.29 ± 0.23

Sequence: AUGGAGCAAUAUUACGCCAA
- self-splicing fitness (ln) (30 °C): -1.45 ± 0.44
- self-splicing fitness (ln) (37 °C): -1.03 ± 0.38

Sequence: AUGGAGCAAUAUUACGCGAU
- self-splicing fitness (ln) (30 °C): -2.66 ± 0.49
- self-splicing fitness (ln) (37 °C): -1.82 ± 0.4

Sequence: AUGGAGCAAUAUUACGCGUA
- self-splicing fitness (ln) (30 °C): -2.62 ± 0.44
- self-splicing fitness (ln) (37 °C): -2.09 ± 0.31

Sequence: AUGGAGCAAUAUUACGCUAA
- self-splicing fitness (ln) (30 °C): -3.13 ± 0.45
- self-splicing fitness (ln) (37 °C): -1.32 ± 0.45

Sequence: AUGGAGCAAUAUUACGCUAG
- self-splicing fitness (ln) (37 °C): -1.66 ± 0.25

Sequence: AUGGAGCAAUAUUACGCUUC
- self-splicing fitness (ln) (37 °C): -1.28 ± 0.32

Sequence: AUGGAGCAAUAUUACGGAAA
- self-splicing fitness (ln) (30 °C): -3.4 ± 0.37
- self-splicing fitness (ln) (37 °C): -2.35 ± 0.29

Sequence: AUGGAGCAAUAUUACGGCAG
- self-splicing fitness (ln) (30 °C): -3.04 ± 0.34
- self-splicing fitness (ln) (37 °C): -1.73 ± 0.5

Sequence: AUGGAGCAAUAUUACGGCCG
- self-splicing fitness (ln) (30 °C): -1.27 ± 0.11
- self-splicing fitness (ln) (37 °C): -0.481 ± 0.19

Sequence: AUGGAGCAAUAUUACGGCUA
- self-splicing fitness (ln) (30 °C): -0.572 ± 0.23
- self-splicing fitness (ln) (37 °C): -0.853 ± 0.26

Sequence: AUGGAGCAAUAUUACGGGAU
- self-splicing fitness (ln) (30 °C): -3.03 ± 0.22
- self-splicing fitness (ln) (37 °C): -0.546 ± 0.19

Sequence: AUGGAGCAAUAUUACGGUCU
- self-splicing fitness (ln) (30 °C): -1.54 ± 0.14
- self-splicing fitness (ln) (37 °C): -2.04 ± 0.21

Sequence: AUGGAGCAAUAUUACGUCGC
- self-splicing fitness (ln) (30 °C): -2.11 ± 0.47
- self-splicing fitness (ln) (37 °C): -1.78 ± 0.48

Sequence: AUGGAGCAAUAUUACGUGAC
- self-splicing fitness (ln) (30 °C): -1.88 ± 0.22
- self-splicing fitness (ln) (37 °C): -2.11 ± 0.28

Sequence: AUGGAGCAAUAUUACGUGAU
- self-splicing fitness (ln) (30 °C): -2.73 ± 0.088
- self-splicing fitness (ln) (37 °C): -0.769 ± 0.08

Sequence: AUGGAGCAAUAUUACGUGUC
- self-splicing fitness (ln) (30 °C): -4.57 ± 0.46
- self-splicing fitness (ln) (37 °C): -2.71 ± 0.28

Sequence: AUGGAGCAAUAUUACGUUCC
- self-splicing fitness (ln) (30 °C): -2.13 ± 0.33

Sequence: AUGUAGCAAUAUUACGAACA
- self-splicing fitness (ln) (30 °C): -0.529 ± 0.14
- self-splicing fitness (ln) (37 °C): 0.476 ± 0.15

Sequence: AUGUAGCAAUAUUACGACGA
- self-splicing fitness (ln) (30 °C): -0.828 ± 0.11
- self-splicing fitness (ln) (37 °C): 0.039 ± 0.14

Sequence: AUGUAGCAAUAUUACGACGG
- self-splicing fitness (ln) (30 °C): -2.09 ± 0.18
- self-splicing fitness (ln) (37 °C): -1.5 ± 0.17

Sequence: AUGUAGCAAUAUUACGAGUU
- self-splicing fitness (ln) (30 °C): -1.68 ± 0.11
- self-splicing fitness (ln) (37 °C): -0.948 ± 0.11

Sequence: AUGUAGCAAUAUUACGAUGG
- self-splicing fitness (ln) (30 °C): -3.4 ± 0.25
- self-splicing fitness (ln) (37 °C): -2.26 ± 0.26

Sequence: AUGUAGCAAUAUUACGAUUA
- self-splicing fitness (ln) (30 °C): -0.6 ± 0.14
- self-splicing fitness (ln) (37 °C): 0.00536 ± 0.13

Sequence: AUGUAGCAAUAUUACGCCUC
- self-splicing fitness (ln) (30 °C): -2.83 ± 0.41
- self-splicing fitness (ln) (37 °C): -1.61 ± 0.32

Sequence: AUGUAGCAAUAUUACGCGAA
- self-splicing fitness (ln) (30 °C): -0.976 ± 0.088
- self-splicing fitness (ln) (37 °C): -1.04 ± 0.13

Sequence: AUGUAGCAAUAUUACGGCUU
- self-splicing fitness (ln) (30 °C): 0.168 ± 0.095
- self-splicing fitness (ln) (37 °C): 0.71 ± 0.12

Sequence: AUGUAGCAAUAUUACGGGGU
- self-splicing fitness (ln) (30 °C): -2.77 ± 0.23
- self-splicing fitness (ln) (37 °C): -3.12 ± 0.3

Sequence: AUGUAGCAAUAUUACGGUCU
- self-splicing fitness (ln) (30 °C): -0.562 ± 0.096
- self-splicing fitness (ln) (37 °C): -0.014 ± 0.1

Sequence: AUGUAGCAAUAUUACGUAUU
- self-splicing fitness (ln) (30 °C): -3.48 ± 0.21
- self-splicing fitness (ln) (37 °C): -1.44 ± 0.16

Sequence: AUGUAGCAAUAUUACGUCGA
- self-splicing fitness (ln) (30 °C): -3.98 ± 0.26
- self-splicing fitness (ln) (37 °C): -2.06 ± 0.18
